In assay [1] the target is Mouse TASK-3 (mKCNK9), untagged (mouse) (UniProt Q3LS21).
Assay [2] addresses HA-mKCNK9 (mouse TASK-3, HA-tagged) (mouse) (UniProt Q3LS21). Put plainly: co-IP; DPP6 and TASK-3 co-expressed with one of them HA-tagged; membrane fraction solubilised in TNE buffer (50 mM TRIS, 150 mM NaCl, 1 mM EDTA, pH 7.4, 1% Triton X-100), precleared with mouse IgG agarose, incubated 16 h at 4°C with anti-HA agarose (clone HA-7); Western blot with anti-DPP6 or anti-KCNK9; Co-IP ratio = fraction precipitated indirectly when untagged divided by fraction precipitated directly when tagged. For orientation: A western blot detects proteins with antibodies after separation by electrophoresis.

Assay [3] has as its target HA-DPP6K (mouse dipeptidyl peptidase-like protein 6, N-terminal variant K, HA-tagged) (mouse). The description is as above.

Substance “DPP6K (mouse dipeptidyl peptidase-like protein 6, N-terminal variant K), untagged (natural protein)” came in with a resting membrane conductance of CHO-K1 cells co-expressing DPP6 with TASK-3, against TASK-3 alone (voltage clamp) in assay [1] of 2.3 fold. Also, the Co-IP ratio (percent of the protein that could be directly precipitated) in assay [2] was 31.4%. “Mouse TASK-3 (mKCNK9), untagged (from UniProt Q3LS21 1-402) (natural protein)”: the Co-IP ratio (percent of the protein that could be directly precipitated) in assay [3] came out at 31.4%.
